From the supplement of paper PMC9170038

Tested on: MS2 coat protein
Test: apparent KD of MS2 coat protein; designed switch direction (-1 OFF switch, 1 ON switch): -1; higher = weaker reporter binding
Summary of the method: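 Designed RNA switches sharing common flanks were transcribed on Illumina chips by stalled E. coli RNA polymerase. They were titrated with SNAP-549-labelled MS2 coat protein, from 0.7 or 1.5 nM doubling to 3 µM, in Tris-HCl pH 7.5 buffer with KCl, MgCl2, BSA, DTT, tRNA and Tween-20. Titrations ran without input, with 200 uM small-molecule ligand, or with an oligonucleotide input. The apparent KD of each design is the median over its clusters, after curve-fitting of normalised cluster fluorescence.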

[1] = input ligand: microRNA oligo, concentration not stated
[2] = Eterna round: R95, input ligand: microRNA oligo, concentration not stated
[3] = Eterna round: R95, input ligand: FMN 200 uM
[4] = Eterna round: R95, input ligand: none

Sequence | apparent KD of MS2 coat protein (input ligand: FMN 200 uM) | apparent KD of MS2 coat protein (input ligand: none) | apparent KD of MS2 coat protein [1] | apparent KD of MS2 coat protein [2] | apparent KD of MS2 coat protein [3] | apparent KD of MS2 coat protein [4]
ACUUAUUGAGGAUAUACAUUAAAUUACAUGAGGAUCACCCAUGUUCUUCAAUGUAUAUAUGUAGAAGGCAGAAGAU [Mat - Exclusion 5 - JL Mod - D20] (Eterna round: R97, puzzle: Exclusion 5) | 18.2 nM | 14.4 nM | – | – | – | –
GAUUCACAUGACUGUCUAUACAUGAGGAUCACCCAUGUUUGUUUUUAUUUUUUUUUGCUUUUUAGUCGUCUUAUUAU [1 hard RNA] (Eterna round: R97, puzzle: Sensor, turn-off variant 1) | 37.1 nM | 35.2 nM | – | – | – | –
UUAUACGGUGAGGAUAUCUUCACUAAAGUGUGAAGAGAAGGCGCUACAUGAGGAUCACCCAUGUCUAUGGGCAG [Ex-6 Malc#17] (Eterna round: R96, puzzle: Exclusion 6) | – | – | 331 nM | – | – | –
UAUAUGUCAGGAUAUUAGUUGAGGUGGAAUUUAGCCUAUGCUGAGAAGGGACAUGAGGAUCACCCAUGUUCCUC [JR_Ex4_Sub011] (Eterna round: R97, puzzle: Exclusion 4) | 93.9 nM | 19.1 nM | – | – | – | –
UUAUUAAUUAAGACUGCAAGAUCACAUGAGGAUCACCCAUGUCAGGAUAUCAGCUCGAUUAGAGCUGAGAAGGGACAAGCAGUC [ExNG3/15-A1] (Eterna round: R96, puzzle: Exclusion NG 3) | 334 nM | 99.6 nM | 112 nM | – | – | –
AGUUGGCGAGGAUAUACAUGAGGAUCACCCAUGUAAGAGAUACGAGUAAGGUAAAUAUGUAGAAGGCGCUGACA [JR_Ex3_Sub076] (Eterna round: R97, puzzle: Exclusion 3) | 251 nM | 26.9 nM | – | – | – | –
CGGUGUCAUGUAAGGAUAUCGCAUCCCAGCGGAUACGAGAAGGUACAUGAGGAUCACCCAUGUACGAUAAAAUA [Atzabian] (puzzle: Brourd's mod of Exclusion 4) | – | – | – | 12.5 nM | – | –
CUCCUCAUGACGCCCAACCACAUGAGGAUCACCCAUGUGCAGGCUUUUUGUCGUCUUAUAAUAAAACCGAGGAUGCG [Edusveti] (puzzle: Sensor v3, turn-off variant 1) | – | – | – | 49.4 nM | 13.3 nM | 13 nM
GGUCUGCGAGGAUAUACAUGAGGAUCACCCAUGUGAGUGAAACUAGUGAGGUCGAUUGGUAGAAGGCGCGGACG [Mat - Exclusion 3 - Mod of JL D82] (puzzle: Exclusion 3) | – | – | – | 63 nM | 17.7 nM | 17.5 nM
UAACAAGCUUAAAGAUCCCACAUGAGGAUCACCCAUGUGCUCGUCUUAUAACGUACUGUGACGAAAGUCACGGUACG [JL TOV1 3.13] (Eterna round: R97, puzzle: Sensor, turn-off variant 1) | 29.2 nM | 26.3 nM | – | – | – | –
ACUUAUUGAGGAUAUACAUUGAUUAACAUGAGGAUCACCCAUGUACAAACAUGUAUUUAUGUAGAAGGCAGAAGAA [JR_Ex5_Sub067] (Eterna round: R97, puzzle: Exclusion 5) | 14.4 nM | 13.4 nM | – | – | – | –
GAUUAUGCGAGCUUUAGGGACAUGAGGAUCACCCAUGUUCGUCUUAUUGAUCUGGGUACACUGACAUACCUAAAUCU [JMF 70] (puzzle: Sensor v3, turn-off variant 1) | – | – | – | 115 nM | 88.8 nM | 110 nM
GCUAGAGCAGGAUAUUUAGAUCCUCACAUGAGGAUCACCCAUGUGGUCGAAAGACUAAGAAGAGAAGGGCUCUAGC [Omei Ex5 E21] (Eterna round: R97, puzzle: Exclusion 5) | 326 nM | 944 nM | – | – | – | –
GAACCGCGAGGAUAUACAGUCGAGUCUAUUACGUGUCUCGGACUUGAGGAUCACCCAAGUAGAAGGCGUCUCAG [salish99_ex2_r4_635] (Eterna round: R97, puzzle: Exclusion 2) | 54.5 nM | 56.2 nM | – | – | – | –
